# Results reported in patent publication US8620595B2, “Methods for determining the retention of peptides in reverse phase chromatography using linear solvent strength theory” (University of Manitoba, priority 2010, dated 2013).
# Experiment: Isocratic elution measurement of slope S (log k vs. φ plots), RP-HPLC with UV detection
# Type: physicochemical
# Details: Luna C18(2) column, water/acetonitrile with 0.1% formic acid, 22-23° C.
# Description: (§1) Chromatography. All chromatographic experiments were conducted at a controlled temperature of 22-23° C. For isocratic measurement of the slope values, a micro-Agilent 1100 Series system (Agilent Technologies, Wilmington, Del.), was used with a 1 mm×100 mm 5 μm Luna C18(2) (Phenomenex, Torrance, Calif.) column and a UV detector operated at 214 nm. Both eluents A (water) and B (acetonitrile) contained 0.1% formic acid as ion-pairing modifier. Stock solutions of the 11 standard peptides (˜1 mg/ml) were prepared by dissolving each peptide in 1 ml of 0.1% FA in water or a 20% acetonitrile solution. Ten microliters of sample was injected. Individual peptides were diluted to provide ˜0.5-1 μg injection of each component using a 10 μl loop. The dead volume of the column and connecting tubings was determined by injecting a non-retained compound (water) and measuring the elution time of the negative peak at a 150 μL/min flow rate. Retention factors for isocratic elution were calculated using the formula: k=(tR−t0)/t0c; where tR is the retention time, t0 is the system (column and tubings) dead time, and t0c is the column dead time. Additional details of measuring S-values via constructing log k vs. φ plots are provided elsewhere.^24 The nano-LC MS/MS experiments were conducted using splitless Tempo LC system (Eksigent, Dublin, Calif.) with 20 μL sample injection via a 300 μm×5 mm PepMap100 (Dionex, Sunnyvale, Calif.) trap-column and a 100 μm×200 mm analytical column packed with 5 μm Luna C18(2) (Phenomenex, Torrance, Calif.). Tryptic digests of the mixtures were spiked with calibrating peptides (see Table 1) as described above, injected on the trap-column using buffer A as a carrier and separated using 0.1875, 0.375 and 0.75 percent acetonitrile per minute linear gradients starting from 0.5% acetonitrile at 500 nL/min flow rate. The composition of both eluents A and B was identical to one described above for normal-flow system. Gradient programs consisted of a 0.5-40% linear increase of buffer B in 213.2, 106.6 and 53.3 minutes, respectively. After each run the gradient columns were washed with 80% B for 3 minutes and equilibrated with the starting A:B ratio for 18 minutes.
# Accordingly, for the determination of S-values of the set of synthetic peptides we used an isocratic elution procedure, despite it being extremely labor intense.^23 Isocratic measurements consist of determining retention times of peptides at several constant acetonitrile concentrations and plotting experimental Eqn. 1 for each peptide.
# These two ways of measurement have been combined to provide a highly accurate and fast way of determining S for an extensive sets of peptides (see FIG. 3). First, precise isocratic measurement of S is performed in normal flow conditions with UV detection for a set of synthetic “S-calibrating” peptides. Similar to the previously described peptide mixture P1-P6 designed to cover wide range of hydrophobicities, these peptides were chosen to cover wide range of S-values (Table 1). Second—a tryptic digest of the bovine proteins mixture (model mixture) is spiked with the “S-calibrating” peptides and run under two different gradient slopes in nano-flow RP-HPLC MS: 0.75 and 0.1875% acetonitrile per minute in our case. Third—retention times are assigned for all identified species. Fourth—retention time shifts in acetonitrile percentage (ACN %) units relative to P3 were determined as: Δ=(tR 0.75−tRP3 0.75)*0.75−(tR 0.1875−tRP3 0.1875)*0.1875 (3); where tR 0.75 and tRP3 0.75 are the retention times of any peptide and reference P3 at 0.75% per minute, and tR 0.1875 and tRP3 0.1875 are the retention times of any peptide and reference P3 at 0.1875% acetonitrile per minute gradient, respectively. Fifth—an experimental Δ vs. S curve was plotted for S-calibrating peptides (FIG. 3). Sixth—S values were extracted from this dependence for all peptides observed in both nano-RP-HPLC MS runs by extrapolation of experimental Δ on this plot.
row,Substance,Slope (S in the basic LSS equation)
1,"LAGGGSASSSADAAAFR [Peptide 9, synthetic S-calibrating peptide]",34.8
2,"LAGGGSASSSAHAAAFR [Peptide 11, synthetic S-calibrating peptide]",44.66
3,"LASAADFR [Peptide 6, synthetic S-calibrating peptide]",27.07
4,"LASAAHFR [Peptide 7, synthetic S-calibrating peptide]",35.59
5,"LGGGGGGDFR [Peptide 1, synthetic S-calibrating peptide]",28.2
6,LLGGGGDFR [Peptide 2],24.76
7,"LLGGSLSSLHAAFR [Peptide 10, synthetic S-calibrating peptide]",33.81
8,"LLLGGDFR [Peptide 3, synthetic S-calibrating peptide]",21.46

# Same assay, conditions: Luna C18(2) column, water/acetonitrile with 0.1% formic acid, 22-23° C., listed as P3
row,Substance,Slope (S in the basic LSS equation)
1,LLGGGGDFR [Peptide 2],24.76

# Experiment: Determination of S from retention time shift Δ relative to P3 at two gradient slopes, nano-RP-HPLC MS of spiked tryptic digest
# Type: physicochemical
# Details: experimental S value, LC-MS runs of model peptide mixture
# Description: Proteins and protein digestion. Tryptic digests of two different protein mixtures were utilized. The “test peptide mixture” contained human proteins: albumin, transferrin, fibrinogen. The “model peptide mixture” contained bovine proteins: albumin, transferrin, fibrinogen, catalase. Equimolar mixtures of the proteins were prepared, reduced with DTT, alkylated with iodoacetamide and digested with sequencing-grade modified trypsin (Promega, Madison, Wis.). Prior to nano-LC MS/MS analysis, mixtures were diluted with buffer A (0.1% formic acid in water) and spiked with the 6 standard peptides P1-P6^24 for test mixture and the set of 11 model peptides (described elsewhere^23) for a model mixture. All dilutions were performed to provide an injection of ˜100 fmole of each component into the nanoRP-HPLC MS system.
# as §1
# Mass spectrometry. A QStar Elite mass spectrometer (Applied Biosystems, Foster City, Calif.) equipped with a MicrolonSpray II source was used in standard MS/MS information dependent acquisition (IDA) mode for LC-ESI analyses. Protein identification was performed using Protein Pilot 3.0 (Applied Biosystems, Foster City, Calif.) with a restricted database containing target protein sequences and the sequences of standard peptides. Retention times of identified species (peak maxima) were assigned manually.
# These two ways of measurement have been combined to provide a highly accurate and fast way of determining S for an extensive sets of peptides (see FIG. 3). First, precise isocratic measurement of S is performed in normal flow conditions with UV detection for a set of synthetic “S-calibrating” peptides. […]
row,Substance,Slope (experimental)
1,LRPVAAEIYGTK,34.815
2,LSQKFPK,38.913
3,LVNELTEFAK,27.906
4,LVTDLTK,28.077
5,LYKELPDPQESIQR,39.098
6,MEDEAESLEDLGFK,29.603
7,MKGLIDEVDQDFTSR,33.2
8,MSTITGPVPR,32.509
9,NECFLSHKDDSPDLPK,41.14
10,NFSDVHPEYGSR,37.948
11,NIVELMR,24.282
12,NLLFNDNTECLAK,28.81
13,NLNREDFR,36.957
14,NLRETAEEVK,40.778
15,NLSVEDAAR,32.289
16,NTPEKGYLAVAVVK,34.392
17,NTVDSVSR,40.092
18,NWIQYK,26.629
19,QAYPNLCQLCK,32.399
20,QEPERNECFLSHKDDSPDLPK,45.147
21,QFVSSSTTVNR,37.462
22,QNCDQFEK,36.657
23,QNQVQDNENWNEYSSHLEK,40.065
24,QTALVELLK,24.2

row,Substance,Slope (experimental)
1,QVLLHQQALFGK,33.087
2,RAFALECIR,31.043
3,RHPYFYAPELLYYANK,35.968
4,RLCENIAGHLK,40.229
5,RLDGSLDFKK,35.968
6,RPCFSALTPDETYVPK,38.129
7,RTPIAVR,39.365
8,RWQWR,27.269
9,SILENLR,24.865
10,SMMEEIMK,25.394
11,SNLQLLR,24.614
12,SQLQEAPLEWK,28.576
13,TFYLK,22.874
14,THFSGDVQR,42.53
15,TPCTVTCNIPVVSGK,34.721
16,TPIAVR,33.313
17,TSDANINWNNLK,30.109
18,TSDANINWNNLKDKK,39.525
19,TSSSTFQYITLLK,29.703
20,TSTADYASFK,30.833
21,TVMENFVAFVDK,28.849
22,TYDSYLGDDYVR,31.66
23,VDLEDYK,28.987
24,VFEHIGK,34.229

row,Substance,Slope (experimental)
1,VFEHIGKR,41.112
2,VGDANPALQK,38.388
3,VIEQVQR,38.258
4,VLDALDSIK,26.128
5,VPQVSTPTLVEVSR,33.745
6,VVQLEANCQEPCQDTVK,39.579
7,VVWCAVGPEEQK,29.603
8,VWPHGDYPLIPVGK,34.183
9,VYCDMK,35.652
10,WCAIGHQER,35.992
11,WCTISQPEWFK,30.438
12,WDPYK,26.36
13,WQWR,22.398
14,WYSMK,25.257
15,WYSMKK,33.268
16,YAAELHLVHWNTK,36.188
17,YCGVPGEYWLGNDR,29.184
18,YETLISTHESTIR,36.09
19,YICDNQDTISSK,37.666
20,YLTTLK,27.604
21,YLYEIAR,27.362
22,YQLSVSK,31.531
23,YYGYTGAFR,29.343

# Same assay, conditions: experimental S, LC-MS runs of model peptide mixture, formic acid
row,Substance,Slope (experimental)
1,MVLETFGGDGHAR,31.001
2,NCPDKFCLFK,28.518
3,NYELLCGDNTR,27.868
4,NYELLCGDNTRK,31.767
5,QDGSVDFGR,28.518
6,QGFGNIATNAEGK,31.595
7,QGFGNIATNAEGKK,37.184
8,QSPVDIDTK,31.703
9,RHPEYAVSVLLR,32.553
10,RLDGSLDFK,29.845
11,SEDGSDCGDADFDWHHTFPSR,37.158
12,SFQLFGSPPGQR,24.764
13,SHCIAEVEK,41.223
14,SIEDLR,28.058
15,SLHTLFGDELCK,30.438
16,SVDGKEDLIWK,30.068
17,TCVADESHAGCEK,47.601
18,TGLAPEFAALGESGSSSSK,28.402
19,TGQIFK,24.984
20,TSHMDCIK,40.393
21,VDSALYLGSR,27.122
22,VHKECCHGDLLECADDR [fragment from bovine albumin],42.014
23,VHKECCHGDLLECADDRADLAK,44.599
24,VLNEEQR,40.229
25,VTALYEGFTVQNEANK,30.77
26,"VTGENDKYR [moderately sized, hydrophilic tryptic species of the model peptide mixture]",49.044
27,VVWCAVGPEEQKK,33.2
28,WCTISTHEANK,37.234
29,YNGVFQECCQAEDK,32.73

# Same assay, conditions: model peptide mixture (tryptic digest of bovine proteins), 0.75 and 0.1875% acetonitrile per minute gradients, formic acid, S from Δ vs. S curve of S-calibrating peptides
row,Substance,experimental S-value
1,VHKECCHGDLLECADDR [fragment from bovine albumin],~42
2,"VTGENDKYR [moderately sized, hydrophilic tryptic species of the model peptide mixture]",49.0
